Results reported in US20150203555A1.

T1: Vascular endothelial growth factor (VEGF165), P15692
T1 chain: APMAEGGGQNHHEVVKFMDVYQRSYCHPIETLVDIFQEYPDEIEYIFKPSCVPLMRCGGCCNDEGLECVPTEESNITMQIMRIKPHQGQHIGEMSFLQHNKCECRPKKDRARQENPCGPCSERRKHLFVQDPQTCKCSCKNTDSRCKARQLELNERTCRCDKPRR


Target: T1, Vascular endothelial growth factor …
Experiment: competition FP, tracer BODIPY-v114*ΔNT

Row | Ki [µM] | Binder
1 | > 100 | VDNKFNKEQHNARAIEAALDPNLNDQQFHAKIWSIIDD (modifications not checked) [α-VEGF-1]
2 | > 100 | VDNKFNKEMHNAYAIEIALLPNLNDQQFHAFIWSLIDD (modifications not checked) [Z-VEGF (1-38)]
